Experimental findings from PMC2692910 are described below.

The experiment concerns the target αB11.4, α-crystallin domain construct of human αB-Crystallin (human) (UniProt P02511). In words: 15N NMR relaxation.

Take “αB11.4, α-crystallin domain construct of human αB-Crystallin (from UniProt P02511 57-158) (domain or fragment)”: the stoichiometry N stood at 2.

The stoichiometry N is the number of molecules, sites or subunits per partner or assembly.
